Source: the DeepSol protein solubility set

Test: soluble on expression in E. coli; label from the status in PepcDB or PDB records

Sequence	soluble on expression in E. coli
MDPRGTKRGAEKTEVAEPRNKLPRPAPSLPTDPALYSGPFPFYRRPSELGCFSLDAQRQYHGDARALRYYSPPPTNGPGPNFDLRDGYPDRYQPRDEEVQERLDHLLCWLLEHRGRLEGGPGWLAEAIVTWRGHLTKLLTTPYERQEGWQLAASRFQGTLYLSEVETPNARAQRLARPPLLRELMYMGYKFEQYMCAGELPLLHSPLPLPRG	not soluble
MDPVFDFEDALDQTEMAQLAVDELKKIPEVNTLFAERWLPAPFNLDDLAKLPEGTLGHVYAIEMKARGFDPYFYKKVPVVDDISYLKMLWRSTHDIYHVVAGFDTDGIGEIGLQAFVLAQTPIPISVMLVSFGMVMTSLYQPAKFQDLMAEIARGYSLGSHTPRKLIAQKWDQFWDVPVIEIRECLGMNTVKQRERALEHHHHHH	soluble
MDQAHANAASLEASDLFDADWYLAEYPDVQSLQMPPAVHYLWLGARLGRNPSPRFSTRSYLDANPDVAQAGINPLLHFLLAGRDEGRSGTILAAPSRGSTETDVNASTFGEHRPYVFLPPADLDRIAAQWSKDSARPDAQGRGIAIFSAITGSYDSINHHEHLIPGADYLLFSDAPKPRYVYQPRQAPWFDCDTVRAARFIKTHPHMLLGGYRIAVWIDGNILIRGDLLPLVQRFEESGLAFGAVPHPLRQSVYAEAVECMKRGKDDEATIRRQMQRYRREEFDCEDLIESNLLMFRLGHPSLAPLLDTWWAQIESGSRRDQLSLNYALHKTGVEWLALTQRPHSVRDHPALALMHHRSQFNPAEPGVCLPRPRERTFAEVRAERIAAQSARRADVIVCVHNAPEMVARCLDSVRTGQNPDRHRIIIIDDGSGRDTAELVSRFAADTPNTVLIRNAVAGGYTRAANQGLKAMDADMAILLNSDTVVAPGWIEKLLDAAFSNPGVGIVGPMSSAASHQSIPEHQSRHDQTAINDLPPGWSAADMDAWCERMAPADFLPRVPLVHGFCFAVTREAVERIGYLDEDSFPDGYGEENDYCLRATDAGVGLAIATHTYVFHEKSQSYQSDRRISLMKRGNGKIRELHGDERVARAVRSMQQNPHLGRLRTAAARLFAVTTPETPALEHHHHHH	not soluble
MDQNTTPAPGLRETKKRETRQLISDHATRLFIERGFEHTTIAEIADAARVAKKTVTNYFPRKEDLALDHQDEFVAALAATVTARGAGETPLTALRHAFLAAVAAQDPVAGFAGQAFTRMIADSPTLTACLRGLHDRREEALTAALAGTTDTPPDDITPRTAAALLGGVHRVLFNRIQELTLAGRATPEIAEVLAREAPRAFDLLTPALAEYGRRP	not soluble
MDQVEIRTHTALHVVKGAVRKVLGAKWTASTYVNSNHGRLTVKFERKPSDQEMDKVFELANEKVRKNLPIIIEVLPREEAERKYGDEIYDLFLISAEVRELSIVVIPDWSINACNKQHTKFTSEIGEIIKDYWRYRNSKQLLEISFDIKC	soluble
MDRPSRITRFFMGIVSWAERLNLKYAKLGNPPVYDNATFPWSAEIEKEWPAIRKELDKILLRQSKLPSFQDISTDVKTISTDNRWKTFFLLGFGVKSEQNIKACPETWRIVNKIPGLTTAMFSIFEPGKHLPPHRGPYNGVLRLHLGLIVPEPNDHWRSAWTARSATGTKARCLEHHHHHH	not soluble
MDRRQKRLIFSTITSKMNLSEEVDLEDYVARPDKISGADINSICQESGMLAVRENRYIVLAKDFEKAYKTVIKKDEQEHEFYK	soluble
MDSARTFESIVIIFNPNSTGDAPELAQQLHGKLKELLTYQPEITLQPTEHAGHAVDLAREAASKGGDVLVVSVSGDGGYNEVVNGVMQADNPRAVAAVLAAGNANDHSRIIGTKPLEEAIAEGRVHNIDLLRIHTGQKENEPLEYAHSYIGFGLTPVVATELEKGSKGALKEMVTVIKSFSEFQPFAIRQSDGKRRKFDSLVFANINEMAKYATLSEAEDHPSDGKFEVIVFPHMPKWRVLLTALKATTQGLGDQPSVSSYEFTTLKPLPYQMDGEVKSVEANVKVTVESAPQALATLG	soluble
MDSKLIGKICKSIRYRDYETAIFLAACLLPCKPEYRMLMSIVLYLNGEYTRALFHLHKLNTCTSKYYESLCYKKKKDYKKAIKSLESILEGKVERDPDVDARIQEMFVDPGDEEFFESLLGDLCTLSGYREEGIGHYVRSFGKSFLFSPVENLLLENKVPQKRDKENVRQTGRRGIEEEYVSDSIEFHESLSPSLVKKYMEHVPGIGSYFISNAARRYFNLGMNDKSKACFELVRRKDPMFL	soluble
MDSNSTTSFLSNGYNHKETLKLIEDMKNSASNKGILLYVNSPGGGVYESDELYLKLKEYKEETGRPVWTYMSNQACSGGYYISMASDKVFSNRNAWTGSIGVIISLTNLKGLYDNLGIKGIYITSGRNKAMGAADLELTDEQRDILQSLVDEAYEQFVEIVAEGRKMTVEEVKRIADGRILSAKQALELNLIDEIATYDEVKEAFQRRAWKC	not soluble
MDSVCPQGKYIHPQNNSICCTKCHKGTYLYNDCPGPGQDTDCRECESGSFTASENHLRHCLSCSKCRKEMGQVEISSCTVDRDTVCGCRKNQYRHYWSENLFQCFNCSLCLNGTVHLSCQEKQNTVCTCHAGFFLRENECVSCSNCKKSLECTKLCLPQIEN	soluble
MDTNFKLSNCIGTVYRDGQVAFSKDGYSVISPIGNKLSIFDLRNNTSKTLDIDCNYNIKRLSISPSGYHLLASDERGVVHFVHLLSEFKIYTFRSNKPIGSLQWSPDATRVAICRENDLQIHEFGKSIENKVYNPFSLSRTYKLSSDSLKTIDWSDDANLLVSGGEDRVVRVVGAKDFKNLFIHPLASHKGYIVNCQFMKNSYDMITVCKRGLANVWTCNLRPGELVEGIWKKDEEGSDDIEMLEDGEQKVEKIFFEKTKKYWLSESSGSGKSVDVTAARFHKETNILATAFNNGVIVLHEIPSFALVHNLRVSEMRIQTVAWNLTGDWLAIGCGKGSTAQLVVWEWQSESYVMKQQAHSLRITTAEYSPDGSLMATGAEDGKVKIWNSRSSFCTVTFDEHTSGVTAVKWTQSGRAILSASLDGTVRAHDLKRYRNFRTLVCPEPTQLATLAVDKAGDLVIAGAKEVFNIYIWSFETGHLLDILSGHESAISSIDIHGNHIVSGSWDRTIKMWTIVDSQAETVEVSHEALDVKFSPAGDEIAVLTSDGVITFFEAKEMINLGSIDTKLDTDPARGSRDTITRQSAAKTKTFTRIRFSPDGNLLLAGGESNNFCLYSVPERMILKKWQITANRSLDGVILDFNRRNFTEFGNMQLVDTSDEEDELEPNNKMSIKLPGTKNFDLGERRARPEVNIYEVTYCPTGRRFAICSTEGVSVYSLDTISMFDPFQLDSQTNAEVIKRAVWNNDYSTAIMASLRLNNAQYITECLESTSISQIPLVASSLPLMYAERLLKWMVEGNVMSSTRHVHFYMIWLRAILQHHGMQLKGRADVATLTGIQQIVAHHQQHITKLANQNKFALNWLVKIRQSKKSVKKEEEEEEDVSDESDDEDIEDESAGSDDEDSDDSVEIIE	not soluble
MDTPRPQLLDFQFHQNNDSFTLHFQQRLILTHNKDNPCLWIGSGIADIDMFRGNFSIKDKLQEKIALTDAIVSQSPDGWLIHFSRGSDISATLNISADDQGRLLLELQNDNLNHNRIWLRLAAQPEDHIYGCGEQFSYFDLRGKPFPLWTSEQGVGRNKQTYVTWQADCKENAGGDYYWTFFPQPTFVSTQKYYCHVDNSCYMNFDFSAPEYHELALWEDKATLRFECADTYISLLEKLTALLGRQPELPDWIYDGVTLGIQGGTEVCQKKLDTMRNAGVKVNGIWAQDWSGIRITSFGKRVMWNWKWNSENYPQLDSRIKQWYQEGVQFLAYINPYVASDKDLCEEAAQHGYLAKDASGGDYLVEFGEFYGGVVDLTNPEAYAWFKEVIKKNMIELGCGGWMADFGEYLPTDTYLHNGVSAEIMHNAWPALWAKCNYEALEETGKLGEILFFMRAGSTGSQKYSTMMWAGDQNVDWSLDDGLASVVPAALSLAMTGHGLHHSDIGGYTTLFEMKRSKELLLRWCDFSAFTPMMRTHEGNRPGDNWQFDGDAETIAHFARMTTVFTTLKPYLKEAVALNAKSGLPVMRPLFLHYEDDAHTYSLKYQYLLGRDILVAPVHEEGRSDWTLYLPEDNWVHAWTGEAFRGGEVTVNAPIGKPPVFYRADSEWAALFASLNSI	not soluble
